# Measurements from patent publication US20030054493A1.
# Legend:
# [1] = target: Crotalus durissus terrificus (C.d.t.) venom; assay: ELISA, venom-coated wells (5 µg/ml); dilution 1:25
# [2] = target: Crotalus durissus terrificus (C.d.t.) venom; assay: ELISA, venom-coated wells; dilution 1:125
# [3] = target: Crotalus durissus terrificus (C.d.t.) venom; assay: ELISA, venom-coated wells; dilution 1:62,500
# [4] = target: Crotalus durissus terrificus (C.d.t.) venom; assay: ELISA, venom-coated wells; dilution printed 1.5
# [5] = target: Crotalus durissus terrificus (C.d.t.) venom; assay: ELISA, venom-coated wells; dilution 1:25
# [6] = target: Crotalus durissus terrificus (C.d.t.) venom; assay: ELISA, venom-coated wells; dilution 1:625
# [7] = target: Crotalus durissus terrificus (C.d.t.) venom; assay: ELISA, venom-coated wells (5 µg/ml); dilution 1:3125
# [8] = target: Crotalus durissus terrificus (C.d.t.) venom; assay: ELISA, venom-coated wells (5 µg/ml); undiluted
# [9] = target: Crotalus durissus terrificus (C.d.t.) venom; assay: ELISA, venom-coated wells; dilution 1:3125
# [10] = target: Crotalus durissus terrificus (C.d.t.) venom; assay: ELISA, venom-coated wells (5 µg/ml); dilution 1:5
# [11] = target: Crotalus durissus terrificus (C.d.t.) venom; assay: ELISA, venom-coated wells; dilution 1:312,500
# [12] = target: Crotalus durissus terrificus (C.d.t.) venom; assay: ELISA, venom-coated wells (5 µg/ml); dilution 1:125
# [13] = target: Crotalus durissus terrificus (C.d.t.) venom; assay: ELISA, venom-coated wells (5 µg/ml); dilution 1:625
substance,measurement,setting,value
preimmune IgY (antibody),ELISA absorbance,[1],0 absorbance
same,ELISA absorbance,[2],< 0 absorbance
same,ELISA absorbance (absorbance (412 nm filter)),[3],0.001
same,ELISA absorbance,[4],< 0 absorbance
same,ELISA absorbance,[5],0.016 absorbance
same,ELISA absorbance,[6],< 0 absorbance
same,ELISA absorbance,[7],0.002 absorbance
same,ELISA absorbance,[8],0.003 absorbance
same,ELISA absorbance,[9],< 0 absorbance
same,ELISA absorbance,[10],< 0 absorbance
same,ELISA absorbance (absorbance (412 nm filter)),[11],0.01
same,ELISA absorbance,[12],0.003 absorbance
same,ELISA absorbance,[13],0 absorbance
